The values that follow come from PMC7081908.

Values joined by “and” are separate entries in the source; they are usually repeats but may differ in a detail not shown here. Identical values can stand only once.

For the assay, the target named is IgG-CD4 protein (fusion protein of human CD4 domains 1 and 2 with human IgG1 Fc at the C terminus) (human). The experiment in a line: BLI; Octet QKe; IgG-CD4 loaded onto protein G sensors at 20 ug/ml in ForteBio kinetics buffer; serial dilutions of gp120 (600 nM to 0.4 nM) in solution; Kd = koff/kon, 1:1 fitting model; two GMP lots of each gp120. In general terms: BLI is a label-free optical method that tracks binding on a fibre tip over time.
Broadly, the Kd is a measure of binding affinity in units of concentration. Regarding “GMP-grade gp120 protein, HIV-1 clade C isolate 93MW965.26 (natural protein)”, the Kd was 157 nM and 115 nM.

In the case of “GMP-grade gp120 protein, HIV-1 clade B isolate JRFL (natural protein)”, the Kd was 7.44 nM and 4.87 nM.

As to “GMP-grade gp120 protein, HIV-1 clade AE consensus”, the Kd was 24.6 nM and 18.4 nM.
